Results taken from patent publication US20220315661A1 (Genmab, published 2022).
Values joined by “and” are separate entries in the source; they are usually repeats but may differ in a detail not shown here. Identical values can stand only once.

Assays:
kDR5ECDdelHis [1] = biological target: T1, kDR5ECDdelHis (human); assay: Bio-Layer Interferometry (Octet HTX), antibody on AHC biosensor, kDR5ECDdelHis in solution, n = 2
T1 construct: DR5ECDdelHis in which the DR5 signal peptide (aa 1-57) is replaced by that of Kappa 2F8; C-terminal His tag; also called soluble recombinant extracellular domain of human DR5; human recombinant DR5
T1 chain: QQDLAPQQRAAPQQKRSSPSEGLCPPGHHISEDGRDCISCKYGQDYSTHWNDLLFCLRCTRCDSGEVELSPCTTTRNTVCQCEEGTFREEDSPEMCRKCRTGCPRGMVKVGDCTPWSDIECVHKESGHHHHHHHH

[2] = biological target: DR5sh79-115ECDdel-FcRbHisCtag (human, with aa 79-115 replaced by the …); assay: ELISA, DR5 fusion protein captured by penta-his antibody
[3] = biological target: T2, Cyno DR5Mfdel-K420N (cynomolgus monkey DR5 with deletion of aa 185-213 and K420N), expressed on CHO-S cells (cynomolgus monkey); assay: flow cytometry on CHO-S cells expressing cynomolgus monkey DR5, average n = 4 (SD)
T2 construct: includes the signal peptide; also called CHO-S cells expressing cynomolgus monkey DR5
T2 chain: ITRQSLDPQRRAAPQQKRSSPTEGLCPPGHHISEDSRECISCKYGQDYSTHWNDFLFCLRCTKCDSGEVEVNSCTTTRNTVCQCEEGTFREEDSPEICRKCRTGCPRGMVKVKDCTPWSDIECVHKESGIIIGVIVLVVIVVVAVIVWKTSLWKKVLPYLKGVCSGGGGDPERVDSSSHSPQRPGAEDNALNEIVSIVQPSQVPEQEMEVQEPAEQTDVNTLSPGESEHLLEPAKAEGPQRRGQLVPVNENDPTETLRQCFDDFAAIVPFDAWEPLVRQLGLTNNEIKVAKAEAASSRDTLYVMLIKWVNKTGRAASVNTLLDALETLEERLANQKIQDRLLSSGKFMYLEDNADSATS

kDR5ECDdelHis [4] = biological target: T1, kDR5ECDdelHis; assay: Bio-Layer Interferometry (Octet HTX), antibody on AHC biosensor, kDR5ECDdelHis in solution, n = 3
DR5ECD-FcRbHisCtag = biological target: T3, DR5ECD-FcRbHisCtag (human); assay: ELISA, DR5 fusion protein captured on a penta-His antibody coat, detection with HRP goat anti-human IgG F(ab')2, OD 405 nm
T3 construct: also called fully human DR5 antigen; extracellular domain of human DR5 natural variant P32L

[5] = biological target: T4, DR5sh139-166ECDdel-FcRbHisCtag (human, with aa 139-166 replaced by the …); assay: as above
T4 chain: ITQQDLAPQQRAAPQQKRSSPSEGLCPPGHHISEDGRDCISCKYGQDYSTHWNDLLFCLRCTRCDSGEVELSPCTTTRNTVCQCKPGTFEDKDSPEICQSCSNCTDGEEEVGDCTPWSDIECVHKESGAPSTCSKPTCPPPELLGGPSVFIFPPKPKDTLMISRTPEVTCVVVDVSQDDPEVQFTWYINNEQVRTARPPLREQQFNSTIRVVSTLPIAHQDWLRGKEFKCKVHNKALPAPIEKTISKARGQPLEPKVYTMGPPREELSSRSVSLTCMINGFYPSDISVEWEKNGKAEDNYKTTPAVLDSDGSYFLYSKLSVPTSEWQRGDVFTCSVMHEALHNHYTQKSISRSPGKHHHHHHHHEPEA

Murine DR5 = biological target: T5, Murine DR5 (mouse, UniProt Q9QZM4 53-381, limits assumed); assay: flow cytometry (FIG. 3D)
T5 construct: also called mouse DR5; Murine DRS (Uniprot Q9QZM4)
T5 sequence (Q9QZM4 53-381 limits assumed): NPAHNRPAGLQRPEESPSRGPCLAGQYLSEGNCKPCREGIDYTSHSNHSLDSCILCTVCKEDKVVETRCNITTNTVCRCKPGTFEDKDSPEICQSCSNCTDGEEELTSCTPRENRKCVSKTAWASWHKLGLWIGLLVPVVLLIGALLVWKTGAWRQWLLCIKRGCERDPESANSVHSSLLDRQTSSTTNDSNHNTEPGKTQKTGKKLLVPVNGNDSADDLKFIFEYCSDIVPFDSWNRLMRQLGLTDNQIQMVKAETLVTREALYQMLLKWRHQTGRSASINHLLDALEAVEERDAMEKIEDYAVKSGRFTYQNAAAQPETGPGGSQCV

B1: IgG1-hDR5-05 (antibody)
heavy: not shown
light: DIQLTQSPSSLSASVGDRVTITCSASSSVSYMYWYQQKPGKAPKPWIYRTSNLASGVPSRFSGSGSGTDFTLTISSLQPEDFATYYCQQYHSYPPTFGGGTKVEIKRTVAAPSVFIFPPSDEQLKSGTASVVCLLNNFYPREAKVQWKVDNALQSGNSQESVTEQDSKDSTYSLSSTLTLSKADYEKHKVYACEVTHQGLSSPVTKSFNRGEC
notes: Humanized IgG1,kappa without the E430G mutation; also called WT counterpart of IgG1-hDR5-05-E430G
kDR5ECDdelHis [1]
  Kd: 28.5 nM

B2: IgG1-hDR5-05-E430G (antibody)
heavy: not shown
light: B1 light
notes: Humanized IgG1,kappa with E430G (Eu numbering); also called IgG1-DR5-05-E430G; HC hDR5-05-E430G / LC hDR5-05
[2]
  binding result: no binding (tested: range 0.46-1,000 ng/mL)
[3]
  EC50: 0.17 µg/mL and 1.16 nM
kDR5ECDdelHis [4]
  Kd: 27.1 nM
DR5ECD-FcRbHisCtag
  EC50 (read off the curve): ~0.02 µg/mL
[5]
  EC50 (read off the curve): ~0.02 µg/mL

B3: IgG1-hDR5-05-F405L (antibody)
heavy: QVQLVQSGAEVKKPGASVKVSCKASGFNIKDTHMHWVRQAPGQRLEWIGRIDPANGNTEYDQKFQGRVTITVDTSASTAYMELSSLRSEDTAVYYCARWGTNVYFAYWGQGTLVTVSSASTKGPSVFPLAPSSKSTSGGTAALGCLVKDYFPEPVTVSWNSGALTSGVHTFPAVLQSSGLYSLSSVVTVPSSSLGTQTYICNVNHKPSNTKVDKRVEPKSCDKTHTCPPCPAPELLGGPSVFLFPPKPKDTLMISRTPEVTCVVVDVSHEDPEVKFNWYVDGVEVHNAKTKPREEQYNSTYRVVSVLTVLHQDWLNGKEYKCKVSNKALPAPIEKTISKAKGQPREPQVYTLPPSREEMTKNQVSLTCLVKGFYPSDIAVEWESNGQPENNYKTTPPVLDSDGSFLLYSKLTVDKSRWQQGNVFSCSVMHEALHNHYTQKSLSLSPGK
light: B1 light
notes: Humanized IgG1,kappa with F405L; also called HC hDR5-05-F405L / LC hDR5-05
Murine DR5
  binding result: no binding
